What was measured:
[1] = biological target: GST-TOG1/2; test: pull-down
[2] = biological target: wild-type TUBB3 (recombinant α/β-tubulin heterodimer with human β-tubulin isotype III) (Homo sapiens) (UniProt P68363); test: TIRF microscopy single-filament polymerization assay
[3] = biological target: TUBB3-D417H (recombinant α/β-tubulin heterodimer with human TUBB3 D417H) (Homo sapiens) (UniProt P68363); test: as above

Row | Kd [1] | apparent association rate constant k+ of tubulin subunits at plus-ends [2] | apparent dissociation rate constant k- of tubulin subunits at plus-ends [2] | apparent association rate constant k+ of tubulin subunits at minus-ends [3] | apparent dissociation rate constant k- of tubulin subunits at minus-ends [3] | Substance
1 | 0.4 µM | 1.7e+06 M⁻¹ s⁻¹ | 1.1 s⁻¹ | – | – | wild-type TUBB3 (recombinant α/β-tubulin heterodimer with human β-tubulin isotype III) (from UniProt P68363-1 1-437; Q13509-1 1-426) (complex)
2 | 1.2 µM | – | – | 1.4e+06 M⁻¹ s⁻¹ | 1.2 s⁻¹ | TUBB3-D417H (recombinant α/β-tubulin heterodimer with human TUBB3 D417H) (from UniProt P68363-1 1-437; Q13509-1 1-426) (complex)

— article PMC4832424
